Test results as given in patent publication US20060036083.

System: ADP-ribosylated HNP-1
Sequence (chain, as listed by the source): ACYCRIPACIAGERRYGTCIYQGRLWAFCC

recombinant human ADP-ribosylarginine hydrolase
Release of ADP-ribose from ADP-ribosylated HNP-1 (MALDI-MS): released a molecule of 3,444 daltons consistent with HNP-1 (calculated 3, 443 daltons)
